# The DeepSol protein solubility set
# Assay: soluble on expression in E. coli; label from the status in PepcDB or PDB records
row,Sequence,soluble on expression in E. coli
1,MGSDKIHHHHHHMKETDNLLRENSHDRDISEIVATITALDHPSPSLLRFTAFVPGSANNPVWAEANVAIRLYLSEEFDDATRVYTVRSFDAATESIVVDVVQHHHESPMMRWSDTVKINDTLVLTGPRPHFVIPEGEQAALFLDDTAIPALAAILDQWPTDLRGKGWVVTDDPAAFDELPSIDGLELNLLAPGSDPTVQPLAQQAYDLENPETYVVWAAGERDEIKSIRRHFRKQVGLEKDAVAVFGYWKYNTTNTQIDAVRKENYMKMLSEGLQLENFDDLSLEI,not soluble
2,MGSDKIHHHHHHMTGLSQSQASPMQIQPGNAAFNPWTDAALDTIRDVNQALTLYAEMRVVPAHHDAFLAAIDTVSAKLRVLPGFLSLALKQMSGDSTMVKNYPETYKGVLATAYLDGVAAGTQPYFYNLFVRFADGRAARAAGFEALFETHIHPLLHAMAPRGGDGPELLAYRAVLQSVVAGDRHAIYRGAEEIRSFLRRPVELPERETVTVENHVMVPEDKHAAWEPQVAILLQVAQDTFEPQDEPSGVGLPGARDNRYYRKALSTEILRNAHADGGLRAYIMHGVWESVWDHENSHLDPRFLAAAGPVGAAAVVGPVEPFYLTRRLVVAD,not soluble
3,AHHHHHHGSEAWRGRSQAVVDNLAPRVVDMLVPEGFKPTQEEQLSSYDVEKKELATVYMITLVSGSGEKEEEVEEETPTQTETQTPTETRTETKTPTETTTTTPTETKETPTQTTTTQPARTETQGGICGPGLIVLLAALGVLRRRS,not soluble
4,MGVFRTRFTETFGVEHPIMQGGMQWVGRAEMAAAVANAGGLATLSALTQPSPEALAAEIARCRELTDRPFGVNLTLLPTQKPVPYAEYRAAIIEAGIRVVETAGNDPGEHIAEFRRHGVKVIHKCTAVRHALKAERLGVDAVSIDGFECAGHPGEDDIPGLVLLPAAANRLRVPIIASGGFADGRGLVAALALGADAINMGTRFLATRECPIHPAVKAAIRAADERSTDLIMRSLRNTARVARNAISQEVLAIEARGGAGYADIAALVSGQRGRQVYQQGDTDLGIWSAGMVQGLIDDEPACAELLRDIVEQARQLVRQRLEGMLAGV,soluble
5,TNVISTLDLNLLTKGGGSWNVDGVNMKKSAVTTFDGKRVVKAVYDKNSGTSANPGVGGFSFSAVPDGLNKNAITFAWEVFYPKGFDFARGGKHGGTFIGHGAASGYQHSKTGASNRIMWQEKGGVIDYIYPPSDLKQKIPGLDPEGHGIGFFQDDFKNALKYDVWNRIEIGTKMNTFKNGIPQLDGESYVIVNGKKEVLKRINWSRSPDLLISRFDWNTFFGGPLPSPKNQVAYFTNFQMKKYELEHHHHHH,soluble
6,MSLQFVSKARKGLVPQRCHRFQSCAYRSNQWRYRGRCDSIQFAVDKRVFIAGFGLYGSSCGSAEYSAKIEMKRQGVVLGQNLSKYFSDGSSNTFPVWFEYPVQIEPDTFYTASVILDGNELSYFGQEGMTEVQCGKVTVQFQCSSDSTNGTGVQGGQIPELIFYAEGHHHHHH,not soluble
7,MGSDKIHHHHHHMKKLRELTVEELFESFVLIKNADVRVAKNGKKFIAFTFQDTSGTIDGKYWDASEDEITRFTAGNVVLLNGKREVYQNKPQVKILHMRLATAEEPSQPSLYMERAPLKKEEMVEEINQVIFEITNAHWNRIVRYLMTKYQQEFYEFPAAKRNHHAFANGLAYHTVSMLRLGKAIAKEYTEINTSLLYAGIILHDLGKVLELSGAITTEYTVAGNLIGHLVLVDEEITKACLALKIDDREEDVVVLRHMVLAHHGLLEYGSPVRPRIMEAEILHQIDTMDASIQMMLGAIRQTQPGEYTERIFGLDNRSFYVPKDK,not soluble
8,MGSDKIHHHHHHMENKLLVFLEAIQQHNSMTKAAQSLFISQPYISRTIKSAETHFGTPLIDRGHHPLELTYAGERLLTYLQSDARLHQRMNTELKEISQNKYQSMTIGITPPMANAWFSQTLPAFYQRFPNIRTKILEITTSKAETLLASHQLDFFIGKTIHQTNVKTIPLQTISLSLVIPKTAGIYQSNQFWRPFTPTILTGMTGEPVIRAVGEARFQELVDHYFADKGIQTIPLIEVDNSRFALSLTLQGLGSIVLATAMLARLATEPAKYPINAFKLPTSELSLDFSIAYLPSHVLAKPIAYLVEQACQTFNPAIDF,not soluble
9,MGSDKIHHHHHHMSRNTEATEEVGIWTGGRLNYKEGFFTQLPTDELAKGISEEVVRAISAKRNEPEWMLEFRLNAYRAWLDMDEPHWLKAHYDKLNYQDYSYYSAPSCGNCDDSCVSQPGAVQQTGANTFLSKEVEDAFEQLGVPVREGKEVAVDAIFDSVSVATTYREKLAEQGIIFCSFGEAIHDHPDLVRKYLGTVVPGNDNFFAALNAAVASDGTFIYVPKGVRCPMELSTYFRINAEKTGQFERTILVADEGSYVSYIEGCSAPVRDSYQLHAAVVEVIIHKDAEVKYSTVQNWFPGDNNTGGILNFVTKRALCEGENSKMSWTQSETGSAITWKYPSCILRGDNSIGEFYSVALTSGHQQADTGTKMIHIGKNTRSTIISKGISAGHSQNSYRGLVKIMPTATNARNFTQCDSMLIGADCGAHTFPYVECRNNSAQLEHEATTSRIGEDQLFYCLQRGISEEDAISMIVNGFCKDVFSELPLEFAVEAQKLLAISLEHSVG,not soluble
10,MVTKTITEQRAEVRIFAGNDPAHTATGSSGISSPTPALTPLMLDEATGKLVVWDGQKAGSAVGILVLPLEGTETALTYYKSGTFATEAIHWPESVDEHKKANAFAGSALSHAALP,soluble
11,MSLNEQAPVIAVLLTERTRRMMLDDAAIAQLNALGEVRWPTGAAIDATDVDQLLHGAVACLTGWGTPPFDPAARQRHPQLALVAHSAGSVRTLVPARLFDDGIRVTHAASKIAASVAEFVVAEALLAMRGIHRLHHQLRNGGEWLDVRAAVPQKLLGSRTVGIVGAGYVGRAVMRLLVPFGCRVLVVDPFLHDSEAAALGVFRAGLNDMLAQADMVSLHAPVLPETRRMIGARELALLRPGTLFINTARAELVDEAALLAEIRSGRIEAALDVFDNEPLPQDSPFRDPALANVTISPHAAGHTNEAHLAQGQAMVDEIGRLLRREPLQHEVSREGHHHHHH,not soluble
12,MGHHHHHHSHMAGAAEDARALFRAGVCAALEAWPALQIAVENGFGGVHSQEKAKWLGGAVEDYFMRNADLELDEVEDFLGELLTNEFDTVVEDGSLPQVSQQLQTMFHHFQRGDGAALREMASCITQRKCKVTATALKTARETDEDEDDVDSVEEMEVTATNDGAATDGVCPQPEPSDPDAQTIKEEDIVEDGWTIVRRKK,soluble
13,MGSDKIHHHHHHMNQNLSSYWIFYTVANAGNISKAAKELYISQPAISKSIQKLEDGLECKLFSRSSRGVVLTDEGRLLYDHVSEAFEALNEGEEKLKRSIELGVGQLKIGVSSTLCKYMLLPYLKEFIHRNPHISISIECQSTNETLKLLDDDKIDIGLIGKPASLKTFNFYYLDNIEDIFVTTKDYLRNLSARGVKKSEILQNSTLMLLDKGNMTRKYIDDYLQENQIHVKDSIDISNMDLLIDFAKIGVGVACVIKSIVSKELADGTLIEIPLGIPIHKREVGFAYKESSKLSTSLQTFIKFYESYTPEDF,not soluble
14,VALESATVGSMHERTVRARTATGIVEGFTRDGVHRWRSIPYARAPVGSLRFRAPQPAQPWPGVRHCHTFANCAPQQRRYTVMGIGRYQTRSEDCLTLNVVTPEEPATQPLPVMVFIHGGGYILGSSATPIYDGAALARRGCVYVSVNYRLGALGCLDLSSLSTPQITLDSNVYLRDLVLALRWVHDNIAEFGGDPGNVTIFGESAGAHITATLLAVPAAKGLFARAISESPAAGMVRSREVAAEFAARFANLIGARTQDAANALMQASPAQLVEAQHHLIRQGMRKRLGAFPIGPVFGDDYLPMDPVEAMRSGRVHAVPLIVGTNAEEGRLFTRFLGMLPTNEPMVEELLSGMKPADRERITAAYPNYPAPSACIQLGGDFAFSSAAWQIAEAHGANAPTYLYRYDYAPRTLRWSGFGATHATELFAVFDIYRTRFGALLTAAADRRAALRVSNEVQRRWRCFSQIGVPGDDWPAYTQDDRAVLVFDRRCRIEFDPHQHRRIAWDGFSLAN,not soluble
15,MAENAAPGLISELKLAVPWGHIAAKAWGSLQGPPVLCLHGWLDNASSFDRLIPLLPQDFYYVAMDFGGHGLSSHYSPGVPYYLQTFVSEIRRVVAALKWNRFSILGHSFGGVVGGMFFCTFPEMVDKLILLDTPLFLLESDEMENLLTYKRRAIEHVLQVEASQEPSHVFSLKQLLQRQRTALTSSAGSCVRIPSGSCRPMSC,soluble
